{"source": "paper PMC3903462", "about": "(Biochemistry, 2013)", "proteins": {"B1": {"name": "HsaD from Mycobacterium tuberculosis H37Rv (enzyme)", "chain": "MTATEELTFESTSRFAEVDVDGPLKLHYHEAGVGNDQTVVLLHGGGPGAASWTNFSRNIAVLARHFHVLAVDQPGYGHSDKRAEHGQFNRYAAMALKGLFDQLGLGRVPLVGNSLGGGTAVRFALDYPARAGRLVLMGPGGLSINLFAPDPTEGVKRLSKFSVAPTRENLEAFLRVMVYDKNLITPELVDQRFALASTPESLTATRAMGKSFAGADFEAGMMWREVYRLRQPVLLIWGREDRVNPLDGALVALKTIPRAQLHVFGQCGHWVQVEKFDEFNKLTIEFLGGGR"}}, "target": "the molecule itself", "experiment": "SEC-MALS"}
{"protein": "B1", "values": [{"measurement": "stoichiometry N", "result": 4}]}
